4 molecules from PMC6128611, “The molecular structure of Schistosoma mansoni PNP isoform 2 provides insights into the nucleoside selectivity of PNPs” (PLoS ONE, 2018) can be followed below.

Data set [1] concerns the target T1, SmPNP2 (purine nucleoside phosphorylase isoform 2) (Schistosoma mansoni, UniProt A0A0U3AGT1).
T1 construct: ORF of 287 amino acids, 6His-SUMO tag cleaved
T1 sequence (A0A0U3AGT1 1-287): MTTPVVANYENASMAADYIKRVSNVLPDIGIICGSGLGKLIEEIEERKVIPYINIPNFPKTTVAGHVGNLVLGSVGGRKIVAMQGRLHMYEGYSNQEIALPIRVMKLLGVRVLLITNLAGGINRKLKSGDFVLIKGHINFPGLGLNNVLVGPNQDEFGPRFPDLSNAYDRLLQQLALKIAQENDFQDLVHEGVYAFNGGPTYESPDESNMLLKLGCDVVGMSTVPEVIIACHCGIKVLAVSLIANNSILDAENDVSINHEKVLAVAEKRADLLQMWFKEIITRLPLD
The data set can be described thus: crystal structure at […] Å, ternary complex with cytosine. The class given is binding.

The target of data set [2] is T1, SmPNP2 (purine nucleoside phosphorylase isoform 2). In words: ITC; crystal structure at […] Å. Format: binding. (In general: Isothermal titration calorimetry measures the heat released or taken up as one component is titrated into another.)
Data set [3] has the same target. In words: crystal structure at […] Å (soaking). Format: binding.
Substrate in data set [4]: Nc1ccn([C@@H]2O[C@H](CO)[C@@H](O)[C@H]2O)c(=O)n1
In words: purified protein. The conditions noted are these: active site; direct H-bonds of base with Met221 and Glu203, ribose O5 with His259 and Tyr202.

Substrate in data set [5]: Nc1ncnc2c1ncn2[C@@H]1O[C@H](CO)[C@@H](O)[C@H]1O
In words: xanthine oxidase-coupled phosphorolysis kinetics (KM). The class given is biochemical, Schistosoma mansoni. The following applies: phosphate (co-substrate).

Substrate in data set [6]: OC[C@H]1O[C@@H](n2cnc3c(O)ncnc32)[C@H](O)[C@@H]1O
The data set is described as above. Format: biochemical, Schistosoma mansoni. The conditions noted are these: phosphate (co-substrate).

Turning to `O=P(O)(O)O[C@H]1O[C@H](CO)[C@@H](O)[C@H]1O` [R1P, ribose-1-phosphate], the “crystal structure at 1.42 Å, ternary complex with cytosine” value in data set [1] is “As expected the R1P binds in SmPNP2 in a similar way to that observed for SmPNP1–R1P complex”.
In general, Kd refers to the concentration at which binding is half-saturated. In data set [2], `Nc1cc[nH]c(=O)n1` [CYT, cytosine] came in with a Kd of 27 µM.
In the case of `Nc1ncnc2c1ccn2[C@@H]1O[C@H](CO)[C@@H](O)[C@H]1O` [tubercidin], the “crystal structure at 1.95 Å (soaking)” value in data set [3] is “three complexes were obtained: SmPNP2–tubercidin (7-deaza-adenosine), SmPNP2–hypoxanthine and SmPNP2–adenine”.

B1: SmPNP2 (purine nucleoside phosphorylase isoform 2) (Schistosoma mansoni) (protein)
chain: T1 sequence (A0A0U3AGT1 1-287)
notes: ORF of 287 amino acids, 6His-SUMO tag cleaved
Usually Km stands for the substrate concentration at which the rate is half of its maximum. The term Vmax denotes the top rate of the reaction or transport when substrate is in excess. What is called kcat is the maximal rate divided by the concentration of active sites. As a reminder, the kcat/Km is the turnover number divided by the Michaelis constant. Turning to B1, in data set [4], the Km worked out at 76.3 µM, the maximum rate (Vmax) amounted to 60 µM/min, the kcat was found to be 2 s⁻¹ and the catalytic efficiency (kcat/Km) came to 26200 M⁻¹ s⁻¹. In addition, in data set [5], the Km turned out to be 22.3 µM, the Vmax was found to be 60 µM/min, the kcat came to 1.02 ± 0.02 s⁻¹ and the specificity constant (kcat/Km) amounted to 46000 ± 5200 M⁻¹ s⁻¹. In data set [6], the Michaelis constant (Km) is 136.4 µM, the Vmax is 360 µM/min, the kcat turned out to be 7 ± 0.2 s⁻¹ and the specificity constant (kcat/Km) was determined as 50600 ± 2900 M⁻¹ s⁻¹.
